Measurements as given in patent US20210388337A1, “PROTEIN-POLYMER CONJUGATES AND METHODS FOR THEIR PREPARATION” (Carnegie Mellon University, priority 2018, published 2021).

Biological target: Biotin-aprotinin (UniProt P00974)
Test: stopped-flow tryptophan fluorescence, avidin 0.5 µM, biotin-protein 5.0 µM

Sequence of Native avidin (P02701 25-152 limits assumed): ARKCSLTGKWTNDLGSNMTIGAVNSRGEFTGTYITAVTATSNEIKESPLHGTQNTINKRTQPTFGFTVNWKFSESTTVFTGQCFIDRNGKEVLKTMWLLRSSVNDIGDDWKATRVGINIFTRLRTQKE

Substance: Native avidin (from UniProt P02701 25-152)
- k (kobs, observed first-order rate constant): 73.5 s⁻¹
